Among the data in patent publication US20200102387A1 are EC50 (read off the curve) and EC50 values, retold here.

Assay [1] has as its target mouse SIRPα on cells (mouse) (UniProt P97797). The experiment in a line: flow cytometry on Mouse SIRPα-CHO-K1 cells. Background: A flow cytometer gives signals particle by particle.
The target in assay [2] is FcγR2A (CD32aH131) (human) (UniProt P12318). Put plainly: cell binding, FcγR-engineered HEK293 cells.
Assay [3] has as its target FcγR2A (CD32aR131) (human) (UniProt P12318). The experiment in a line: cell binding, FcγR-engineered HEK293 cells.
For another assay, the target named is FcγR1 (CD64) (human) (UniProt P12314). The experiment in a line: cell binding, FcγR-engineered HEK293 cells.
Chain of FcγR1 (CD64) (human) (P12314 16-374): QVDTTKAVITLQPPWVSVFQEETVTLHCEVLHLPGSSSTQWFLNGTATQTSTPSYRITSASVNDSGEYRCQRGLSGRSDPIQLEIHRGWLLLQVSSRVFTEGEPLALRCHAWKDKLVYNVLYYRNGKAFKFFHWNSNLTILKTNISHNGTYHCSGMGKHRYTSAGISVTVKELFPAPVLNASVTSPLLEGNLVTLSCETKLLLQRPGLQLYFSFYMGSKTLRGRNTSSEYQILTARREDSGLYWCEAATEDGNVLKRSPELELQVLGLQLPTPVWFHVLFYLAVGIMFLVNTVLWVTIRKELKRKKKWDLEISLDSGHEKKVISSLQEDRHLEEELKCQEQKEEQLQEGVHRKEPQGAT
The target in assay [4] is FcγR2B (human) (UniProt P31994). Put plainly: cell binding, FcγR-engineered HEK293 cells.
Chain of FcγR2B (human) (P31994 43-310): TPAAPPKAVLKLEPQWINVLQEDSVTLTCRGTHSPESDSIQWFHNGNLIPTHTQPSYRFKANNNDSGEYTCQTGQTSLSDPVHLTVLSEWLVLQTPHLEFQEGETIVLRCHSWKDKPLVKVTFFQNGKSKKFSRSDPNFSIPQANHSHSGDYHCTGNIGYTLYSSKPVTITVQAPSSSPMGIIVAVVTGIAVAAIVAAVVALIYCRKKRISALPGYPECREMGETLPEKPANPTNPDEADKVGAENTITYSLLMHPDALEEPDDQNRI
For assay [5], the target named is FcγR3A (CD16aV158) (human) (UniProt P08637). Put plainly: cell binding, FcγR-engineered HEK293 cells.
Chain of FcγR3A (CD16aV158) (human) (P08637 17-254 F176V): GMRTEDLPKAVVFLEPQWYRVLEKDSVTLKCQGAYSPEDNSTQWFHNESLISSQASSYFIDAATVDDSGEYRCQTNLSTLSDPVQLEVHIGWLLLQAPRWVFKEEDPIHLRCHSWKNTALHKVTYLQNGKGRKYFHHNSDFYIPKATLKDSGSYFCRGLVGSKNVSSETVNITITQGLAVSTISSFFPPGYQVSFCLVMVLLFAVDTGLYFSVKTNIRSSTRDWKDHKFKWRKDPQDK
Assay [6] addresses FcγR2B (human) (UniProt P31994). The experiment in a line: cell binding, FcγR-engineered HEK293 cells. This is another data set of the same source.
Assay [7] concerns the target FcγR3A (CD16aF158) (human) (UniProt P08637). Put plainly: cell binding, FcγR-engineered HEK293 cells.
Assay [8] has as its target FcγR3A (CD16aV158) (human) (UniProt P08637). Put plainly: cell binding, FcγR-engineered HEK293 cells. This is another data set of the same source.
Assay [9] addresses rat SIRPα on CHO-K1 cells (rat) (UniProt P97710). Put plainly: flow cytometry on Rat SIRPα-CHO-K1 cells.

pEC50: −log10 of the molar value. Where two headings read alike, the source gives them in different places.

Chain of FcγR2A (CD32aH131) (human) (P12318 34-317): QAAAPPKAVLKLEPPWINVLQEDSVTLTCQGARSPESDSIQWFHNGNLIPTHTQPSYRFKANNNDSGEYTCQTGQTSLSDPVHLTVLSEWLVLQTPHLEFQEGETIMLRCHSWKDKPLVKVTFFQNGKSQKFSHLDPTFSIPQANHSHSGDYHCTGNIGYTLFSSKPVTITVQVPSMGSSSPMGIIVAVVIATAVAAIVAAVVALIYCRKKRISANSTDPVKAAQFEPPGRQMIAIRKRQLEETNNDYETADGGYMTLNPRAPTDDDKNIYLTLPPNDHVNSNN
Chain of FcγR2A (CD32aR131) (human) (P12318 34-317 H167R): as the sequence (P12318 34-317) above, with H134R counted along it
Chain of mouse SIRPα on cells (mouse) (P97797 32-513): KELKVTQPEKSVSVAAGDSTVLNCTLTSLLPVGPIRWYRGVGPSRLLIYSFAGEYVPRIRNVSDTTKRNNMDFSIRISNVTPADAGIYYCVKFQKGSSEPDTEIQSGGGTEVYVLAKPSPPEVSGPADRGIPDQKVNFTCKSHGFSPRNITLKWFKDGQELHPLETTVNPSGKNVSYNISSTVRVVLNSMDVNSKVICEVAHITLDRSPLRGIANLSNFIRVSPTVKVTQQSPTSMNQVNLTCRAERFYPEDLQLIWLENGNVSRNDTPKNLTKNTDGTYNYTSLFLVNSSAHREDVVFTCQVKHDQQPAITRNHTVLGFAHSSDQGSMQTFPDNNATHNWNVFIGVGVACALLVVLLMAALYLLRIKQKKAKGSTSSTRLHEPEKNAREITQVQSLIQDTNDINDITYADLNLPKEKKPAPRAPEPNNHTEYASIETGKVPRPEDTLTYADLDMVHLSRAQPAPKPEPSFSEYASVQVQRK
Chain of rat SIRPα on CHO-K1 cells (rat) (P97710 32-509): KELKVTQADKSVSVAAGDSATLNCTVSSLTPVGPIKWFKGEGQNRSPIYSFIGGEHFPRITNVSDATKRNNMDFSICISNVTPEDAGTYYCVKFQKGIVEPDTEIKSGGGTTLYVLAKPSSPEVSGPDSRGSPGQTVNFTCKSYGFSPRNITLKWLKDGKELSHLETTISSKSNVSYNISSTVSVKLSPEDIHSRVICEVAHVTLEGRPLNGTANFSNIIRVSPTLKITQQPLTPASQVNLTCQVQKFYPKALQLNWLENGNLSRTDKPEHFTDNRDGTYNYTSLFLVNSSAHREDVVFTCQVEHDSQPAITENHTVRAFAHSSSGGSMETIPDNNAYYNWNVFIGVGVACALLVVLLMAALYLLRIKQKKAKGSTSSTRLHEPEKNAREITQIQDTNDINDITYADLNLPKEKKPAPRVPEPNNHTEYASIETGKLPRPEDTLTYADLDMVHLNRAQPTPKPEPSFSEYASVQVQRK
Chain of FcγR3A (CD16aF158) (human) (P08637 17-254): as the sequence (P08637 17-254 F176V) above, with V160F counted along it

As a reminder, the EC50 (read off the curve) is the concentration giving half of the maximal effect. A low value points to higher potency in that assay. In turn, anti-mouse-SIRPα antibody P84 registered an EC50 (read off the curve) in assay [1] of 2 nM.
For orientation: pEC50 means the negative decadic logarithm of the EC50, by convention in mol/L. Read a low pEC50 as a large EC50. With Commercially Available IgG1 (antibody), the pEC50 in assay [2] is 6.44; in assay [3], 6.73; with FcγR1 (CD64) (human) it was 9.08.
On to Isotype Control-IgG1 (antibody), for which the pEC50 with FcγR2B (human) [4] is 5.65; in assay [5], 6.90; in [2] it was 6.86; with FcγR2B (human) [6], 5.92; in assay [7], 6.51; in [3] it was 7.04. Further, the pEC50 in [8] is 6.35; with FcγR1 (CD64) (human), 8.93.
For the substance anti-rat-SIRPα antibody OX-41, the EC50 (read off the curve) in assay [9] was 2 nM.
